Measurements published in the domain aggregation screens of Martell et al. (2025).

Experiment: soluble fraction after stress (log2 fold change); higher = more stays soluble; pooled small domains, quantitative proteomics
Conditions: stress: 50 degC
In short: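 Each library was heated to 50°C as a stress step. The libraries, made up of small protein domains, were pooled and analysed at high throughput by quantitative proteomics. The reported value is the base-two logarithm of the fold change in each protein's soluble amount after stress, taken as a measure of aggregation propensity. The higher the value, the more protein stays in solution.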

In order of falling “soluble fraction (log2)” value:
1. HMGNAQELQKKLEGLKGISGIEKLESDHYAEKYLVRITQPVDHKNPAAGTFTQRVIVAHVGFDRPTILVT  0.511
2. HMNVRRSRTHEKVTTYQGYDIFINKEPNQRGMFTSAPMRGDNEYSNLRGEGKSKQDAVNMTKEKIDEIAA  0.403
3. HMSLETRRYQLPRTDAQTASGLLRSLSGLPGVREVNLSGEGVAYLKVDSKGFDEQNVIKLLAGE  0.307
4. HMGEKTVPNVIGQKLATAKQLLEKEGLTVGSTSYNKNQADKDTVLSTDPAPGSHLSEGAKVNLTLSSGA  0.261
5. HMTTGLETYPGKIAVVSDDFIDGEGRVQLDGALWRAKTKDHQQLKQGDHVTIVNVKGLTLTVMPDD  0.23
6. HMHPNPLTEQEIAVLKGIAQGLSNQEIADQLYLSNGTVRNYVTNILSKLDAGNRTEAANIAKESGW  0.143
7. HMQARDQNVDEGKALLEKEFSRLALENLDRDKLANAVNYPTRDDMYAAIGAGDLRVGQVLHQAQQLF  0.142
8. HMNRLEFLQGLKAELEGRVPHSIIQENLRYYDSYISDEAAKGQSEEDVVESLGGPRIIARTIVDAA  0.134
9. HMELNGVSETAKSVYSIILNNSSTVDDIVIKTKLPAAKVMQALTELELNDAVERKSGGVYALP  0.13
10. HMVTTTEAAKMLLVNAGHDVIKDGLTGASWASNTMKLADADGLLASVATKPNDALPRQYAAQMIYN  0.076
11. HMNTEVDKVLLRSGEAYFGEVLLRNDELVMMKTQDGARFQFPVSEIKSIEKVSVADALRHINS  0.0758
12. HMGDITIPDLQGMSFDQAREKLKALGLSIGKISYTSDTSKDDGVVISQGLQAGGKASKGATVDITINET  0.0588
13. HMINLGDLEVGHTYHTRMPILQNDLKYSHKSPIQIVAEHSIVYGVRVYIGFLNEHRVLVTADDV  0.0223
14. HMLTTADLMMVHANSNKAIDYIVTDDNTKLTVDEPVTAKWITTADSIYRAVAYYNKVGDGKAQIVSVGN  0.0204
15. HMIKISDYLSEEDLNFIKEMEKIYPYFDFDSEGNLILTKSIDELKDKYGFDEAFVSRLDTVLNSR  0.0178
16. HMENLIEELTAKNKEYIHSVTKQLILVGKSDEEVKEILNDILPQIIEGQKSGIIARKLLGAPTEFVSQYQP  0.011
17. HMNFMDGFQSFFQESGAMNRPMTADVVSYRLPDGTVQQGNSTMRGLMDQYLKSIGQSPTTGVP  0.00775
18. HMDPPYKDKNLHELLLKINNLNILKKDSVIILHRHKKQKEIFPSNFKIIEQKQYGISKIIFLTVL  0.00254
19. HMPPALTELLSVRTNASGTIDYLLPDRSAGLRVENGSKYSGMVPDSIYRLVAIYEIKDAKEPSAYIYTI  -0.00921
20. HMKRITGHLTEKNKKWYAVINLYDTDGKRKEKWQGLNLDANKGNKREAEHRLRQILDQYNTD  -0.0127
21. HMESLSHRQKSIVDWVQKNGYASIERMAEQFEVSAQTIRRDVIELSERRILQRHHGGASLPAG  -0.0143
22. HMGSATAPDLKGLTYEQAQTKAEDAGYNIEKGEDVYDNDVEKGKVASQDPEAGAEAKEGSVITVNISK  -0.0349
23. HMTKNEFLASFQNELQKRHIPDWEDVVSEYEQHFALKQADGFSEEEIAAKLGAPAELAAQFEA  -0.0437
24. HMSKMTLGENLRLLRREKGLSQEQVAQTLFVARQTISKWENGQAEPGVESLKALAKLYGVSLDRLVGA  -0.0483
25. HMAVVAPLAGSVARVLVADGDEIEAGQVLLVLEAMKMETEITAPKAGKVGAILVGKGDSVQGGQGLR  -0.051
26. HMETQVKVPNVVGMTQSKAIAKLKESKLDYEVQEQKHDGDKGKVVDQSEAEGTYVDRGTKVIIYVSTGE  -0.088
27. HMPAVVEFDVKPRGEVLVDGIWYGRIPELREVELRPGRHHLRVQNAGHPSLDLVVTLEPGERMTVTHTFA  -0.102
28. HMDFIEYIISEESKGLRADQAISMENDKFSRSLIQKWIKKGRVLVNGRKIKPKDIVNLNDKITINPEESIN  -0.143
29. HMGGREEAGTDIARLLGYINDIHGEELIAKLEYYQKMLGSENFAVLMSRLPDGQKKELREQNLYSEYV  -0.145
30. HMSMTVHGALRLLQLPTIADRPYTLKEIREAYREQAQNHHPDAGGSADAMRRLNEAYQFLKERYRQA  -0.16
31. HMDVLDVADNVNDDMSFADAFAAARSEVGAGGIFYWHGKAYGTYYENEWAGMSEEDKADYWDAVARTTS  -0.18
32. HMAPMYGEFENVRLTDAQLDKLNARFPPEQVQREIEALSGYMRSKGKRYADHYATLLNWLRRDFPP  -0.202
33. HMGSTATVIASRLNMRASASTTGALLTKIPNGATVTVLGTTGAWSHIRYGSYTGYVMSQYLRING  -0.203
34. HMLYGRRFQVEGLNLERYLRAAADSGIPLKGARRFGRTLTGVAAEEHMAALEALARQGGWLFTPLEAVGAN  -0.22
35. HMNQEQQSAVMSALKATLPDLEAALEARQFKESKQLLKTAQNQFQQLDGRNRRGFQARIQLLAGQFRELS  -0.227
36. HMRGADNAASILKEVGPHPEDGKPITVRSGRYGPYVKHGTTNATLPKDIKPEEITLDEAIALINERVAKG  -0.243
37. HMDSQSVFADLVKSLSQKIASIPVWFEYTKNEQYDLISSYVSAKLKDLGVEFSQEEKEKFITMFMNS  -0.267
38. HMRGWGTVKRRTPKSGRYRASYIGPDGKRYAADHTYAAKVDADAWLSSERALITAGVWTPPTDRVT  -0.286
39. HMDMTPEEFLAWARHKPFGDPFPKTQTVTFLVPLLGVSRTNIFTWISGKVNPSKTSLLLMEALKRENR  -0.289
40. HMHFIMEYRIRAYVDELFESAPRTQRAYELKIELTQNLIDKYYALVSEGKSEQDAYNLTVMSIGDVREL  -0.298
41. HMGWVMLVIMSRGASEAQINAVVEKIRAAGLTEHLSKGIERTIIGAIGEERKLEPEVFELLPGVEQALHIV  -0.342
42. HMDFSERLARAMSLAGYTQGRLAKEVGMAQSSVNKLLNGANGSRKTVEIASVLGVRPEWLSTGAGEML  -0.371
43. HMTTMTTGQRIAAKRKEQGLSQENLGEQLGVSRQAIYKWESDASLPDIDKLIALSRLFGVSTDYLLLE  -0.41
44. HMAEDGNMTFEEYAKRWLARQVRYAPSTLESYRRMLGRVYPFIGAIPINRLRPIALENLLAELRKRT  -0.48
45. HMIMTEKEKKLLNRYIMHDTIHKLYHEQNKSMRWIADNLGINFRTVQKYLDMDSGEFQKYSESISNR  -0.48
46. HMSFGFFELKSSDTDKLFAYLNNNEHFGNIKEENGLVTAFLTSELDAQTLNKLLFDNGIIASHLVKRK  -0.51
47. HMEVGKRIAEIRKENRMSQEQFGQLFHVTRQTVSNWENAKSYPDLQTLVKISELFEITMDELLK  -0.511
48. HMPPAIKTLMFMIQNKSLLKSPKQLAVVQQQLKKIKGVRDVLILLEEGKVMLKVNKHETIHEASIIRLLGG  -0.521
49. HMSPLDSHLGRRIALRRQQLNTSAADLEKAISMVPGSVARFEAGRQSLNATQLFTLSRALDVPVLYFFEG  -0.534
50. HMEFQEQLYRLRKQAGLSQEELSHIIGVSRQAVQKWEAGSARPDLDNLIALASHFKLSLDQLVGLT  -0.555
51. HMSADDSDDRKGIDAWLTQLLANGSVKATEVYSAADAAGYSKDQAKRAKRRLAIEAVREAMDGPWFWRLD  -0.616
52. HMINVVDEVIKHLETNIISGFWAPGQKIDSEATLSKQLNVSRASIHTAIQQLIATGVLESFQGKGTFVRS  -0.624
53. HMYHADLIGLEARSTAGDKLGEVNAVYNFGAGDLIEIKMTDGNLEMLPFTRQYVPTVSIKDGFIIVQM  -0.628
54. HMTPEPVREALTFQEGRVFALAAKNMTNAEIAQSLSLKLKTVENYMSIIYQKLALKNRYELLVYARKSGV  -0.631
55. HMQGDHELSQRILSYLSEQGGSSPLTDKASPEEIYRIFRVSKKKYKQALGNLYKSKSIIILADKIQLL  -0.736
56. HMSLANTSVKEMLNDLVKNEEPSKPLSDEALVKIFKEKGVKIARRTVAKYRAELNILPSHLRRT  -0.749
57. HMVAGHLQTKKGYYYIVLNMRTDTGARKTKWIATGIPEGGKKNLKQAEELLAKTRYTYEDMVI  -0.792
58. HMPEMAIRTLRLRNQRGAAVAAEWSRITASLLELRQVEFVNPVDQLIVLKGPEPWAGVAEELVRQLDV  -0.849
59. HMNVPFGYTIKDGLLVEQPDEKAILDNILTWKKGQMTVAEIAKKTGMETWKIYGILNYWRNK  -0.875
60. HMTQLEVDLFERLITISGVGPRLALAVLSGLEPPDLLRAIQDSDIVRLQGIPGVGKKTAERISLELKDKLS  -0.963
61. HMATIADILAEHKDKEGPLLPVLHDVQKMFGHVSEEAMREIAQALNLTRAEVYGVVSFYHDFRKEVE  -0.975
62. HMNYTALLNNFSENMKKRRVELSLSQKELASIVGVSVRTIQNYENKKTIPTSAVMESISIALDMGLEKMID  -1.27
63. HMRTLRENIMDYFKQQTIIQKSSVILLPMSKRQLADYFGVQRPSLFRELKKLKEEGIIEINNRTITIK  -1.27
64. HMNINLDINTYTVKELEKLLKLEVPYSDNNVFEKKNLMVKMIQTSTIAETKKEELYIFLDNIYNRLTNNLE  -1.35
65. HMGIDVSAFSDTALEVLRLQAAGYTTREIAQQLHITQRTVKYHASENYRKLDARNLVDAVQIAQSLHI  -1.41
66. HMQEKLELIIPVSSIGKRADVAIQDLLSSYSRAKIQEWIKSGFILLESKKISPKDIFMGGERVFIDIQQDE  -1.41
67. HMISFHEYLTQLLDEKGLTKAQVITDSNIQKNYGYQIFDGSKTPSRDKVIAIALAMQLTLDEANRLLHLSN  -1.47
68. HMIHMNMGQKINQLRLQKGFTLEELGNLVGVGKSTVRKWENGMIANMKRDKILLVAEALDTSPAYLMGWD  -1.54
69. HMGHRQRRARARNRSMLEDIPGLGPKRRQQLLRQFGGLPQLMRAGVAELSQVPGISDSLARKIHAELHPES  -1.77
70. HMAAPLTDRETEVLTLLARGLINKQIAEELHIGLTTVITHRRNIMEKLRVRSLAELILRAVAAGYVDAGR  -1.77
71. HMKPFVVVPIDQVRVGMFIQLDLGWMQHPFPVGSFRVASEAQIDTLRSLDLESVRYLPAKSDPAFQQP  -2.1
72. HMVWTAGEVVERIRERVGHPATIRELMQVLTIPPEDRHRFRRRIMQLVEAGELIRIRGNRYGLAD  -2.3
73. HMPALATKDSVLDGRAEVVSYVRDTSVFYLRVRVPQKQGYRSRRIDGVSTLPEAITKALDTYMDLGT  -2.57
74. HMRLATSELVYRIRALIRDQELQPGERLGSERALAQSLGISRSDLRMALAVLEASHEVIRKIGRAGGIVVS  -3.14
75. HMTEWSIHEVAQRSGVTTRTLRHYDAIGILSPTRTGANGYRYYGPEALVRLQRILLLRDLGLALSDIAE  -4.61
